Data reported in the supplement of paper PMC10065799, “High-throughput profiling of sequence recognition by tyrosine kinases and SH2 domains using bacterial peptide display” (eLife, 2023).

How the values were obtained:
AncSZ = experiment: phosphorylation enrichment, bacterial display (enrichment ratio); higher = better substrate or ligand; peptides without Tyr show the background
EPHB1 = EPHB1 (UniProt P54762); experiment: as above
EPHB2 = EPHB2 (UniProt P29323); experiment: as above
FGFR1 = FGFR1 (UniProt P11362); experiment: as above
FGFR3 = FGFR3 (UniProt P22607); experiment: as above
Chain of FGFR3 (P22607 whole entry, looked up): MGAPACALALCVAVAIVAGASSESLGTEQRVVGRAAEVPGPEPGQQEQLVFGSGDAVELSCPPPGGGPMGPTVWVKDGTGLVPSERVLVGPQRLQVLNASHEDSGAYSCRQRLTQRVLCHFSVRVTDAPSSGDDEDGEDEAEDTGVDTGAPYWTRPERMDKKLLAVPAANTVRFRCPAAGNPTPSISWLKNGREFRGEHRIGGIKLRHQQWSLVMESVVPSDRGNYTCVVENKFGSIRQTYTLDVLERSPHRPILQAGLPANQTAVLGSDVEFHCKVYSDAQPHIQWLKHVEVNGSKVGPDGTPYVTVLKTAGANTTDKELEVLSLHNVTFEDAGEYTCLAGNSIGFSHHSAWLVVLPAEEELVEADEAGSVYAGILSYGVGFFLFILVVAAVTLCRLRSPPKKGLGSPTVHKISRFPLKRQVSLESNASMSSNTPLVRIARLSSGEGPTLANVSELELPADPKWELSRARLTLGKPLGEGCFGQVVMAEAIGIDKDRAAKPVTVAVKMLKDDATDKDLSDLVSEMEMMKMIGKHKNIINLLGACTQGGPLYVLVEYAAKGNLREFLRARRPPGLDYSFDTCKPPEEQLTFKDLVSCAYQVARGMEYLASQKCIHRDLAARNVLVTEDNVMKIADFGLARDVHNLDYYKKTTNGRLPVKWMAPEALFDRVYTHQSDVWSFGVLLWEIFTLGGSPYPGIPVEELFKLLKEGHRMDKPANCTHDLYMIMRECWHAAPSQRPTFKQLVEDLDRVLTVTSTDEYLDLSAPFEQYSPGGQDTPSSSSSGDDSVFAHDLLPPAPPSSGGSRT

Fer (mouse) = experiment: as above
Fes = Fes (UniProt P07332); experiment: as above
Chain of Fes (P07332 whole entry, looked up): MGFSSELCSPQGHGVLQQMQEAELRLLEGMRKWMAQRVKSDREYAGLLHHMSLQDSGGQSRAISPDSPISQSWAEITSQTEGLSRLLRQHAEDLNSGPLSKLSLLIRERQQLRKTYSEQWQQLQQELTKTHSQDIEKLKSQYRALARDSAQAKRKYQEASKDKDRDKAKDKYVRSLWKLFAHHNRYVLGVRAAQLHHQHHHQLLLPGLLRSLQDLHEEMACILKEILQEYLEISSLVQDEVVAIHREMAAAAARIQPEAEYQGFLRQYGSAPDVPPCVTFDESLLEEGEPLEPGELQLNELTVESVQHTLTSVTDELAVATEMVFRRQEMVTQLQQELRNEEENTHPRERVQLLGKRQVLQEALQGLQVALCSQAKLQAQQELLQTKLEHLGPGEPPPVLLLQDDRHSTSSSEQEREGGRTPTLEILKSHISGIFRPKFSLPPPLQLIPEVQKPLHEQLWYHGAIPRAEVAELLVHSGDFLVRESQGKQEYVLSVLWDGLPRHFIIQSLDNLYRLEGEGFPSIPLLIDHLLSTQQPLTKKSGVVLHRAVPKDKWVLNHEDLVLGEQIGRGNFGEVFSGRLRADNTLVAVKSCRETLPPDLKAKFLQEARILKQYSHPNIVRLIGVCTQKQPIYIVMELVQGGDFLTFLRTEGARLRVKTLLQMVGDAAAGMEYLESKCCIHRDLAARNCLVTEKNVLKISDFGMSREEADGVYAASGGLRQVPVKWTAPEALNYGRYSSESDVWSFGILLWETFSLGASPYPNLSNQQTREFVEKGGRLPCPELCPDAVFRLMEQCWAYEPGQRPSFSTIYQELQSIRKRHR

Fyn = Fyn (UniProt P06241); experiment: as above
Chain of Fyn (P06241 whole entry, looked up): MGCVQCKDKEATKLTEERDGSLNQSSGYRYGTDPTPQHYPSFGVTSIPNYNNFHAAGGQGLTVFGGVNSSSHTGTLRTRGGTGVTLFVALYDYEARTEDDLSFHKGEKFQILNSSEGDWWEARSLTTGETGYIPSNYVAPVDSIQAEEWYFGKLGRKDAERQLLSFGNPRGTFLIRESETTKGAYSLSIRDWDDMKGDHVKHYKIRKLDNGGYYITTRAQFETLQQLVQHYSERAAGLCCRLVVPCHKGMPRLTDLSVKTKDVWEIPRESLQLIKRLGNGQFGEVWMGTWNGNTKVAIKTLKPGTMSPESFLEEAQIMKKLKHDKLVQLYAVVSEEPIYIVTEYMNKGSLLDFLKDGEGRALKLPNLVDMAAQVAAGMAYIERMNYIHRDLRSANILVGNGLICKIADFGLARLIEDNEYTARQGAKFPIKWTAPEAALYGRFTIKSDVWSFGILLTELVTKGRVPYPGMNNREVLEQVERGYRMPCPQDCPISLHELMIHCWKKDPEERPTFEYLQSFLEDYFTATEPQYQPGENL

Hck = Hck (UniProt P08631); experiment: as above
Chain of Hck (P08631 whole entry, looked up): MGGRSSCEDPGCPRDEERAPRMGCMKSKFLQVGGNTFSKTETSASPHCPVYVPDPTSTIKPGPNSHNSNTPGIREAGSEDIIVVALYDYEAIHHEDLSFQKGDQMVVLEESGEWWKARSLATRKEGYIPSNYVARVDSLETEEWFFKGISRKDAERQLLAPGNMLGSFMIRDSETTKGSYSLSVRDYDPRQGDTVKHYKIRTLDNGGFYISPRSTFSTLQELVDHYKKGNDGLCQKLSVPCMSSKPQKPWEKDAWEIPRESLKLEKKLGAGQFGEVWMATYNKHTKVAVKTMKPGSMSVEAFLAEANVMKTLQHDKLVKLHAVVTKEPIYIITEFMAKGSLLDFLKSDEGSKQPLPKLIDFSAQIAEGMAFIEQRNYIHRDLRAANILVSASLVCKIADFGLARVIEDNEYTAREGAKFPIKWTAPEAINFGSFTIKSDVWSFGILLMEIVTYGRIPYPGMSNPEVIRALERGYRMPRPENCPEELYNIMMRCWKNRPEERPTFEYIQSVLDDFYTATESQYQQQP

Jak2 = Jak2 (UniProt O60674); experiment: as above
Chain of Jak2 (O60674 whole entry, looked up): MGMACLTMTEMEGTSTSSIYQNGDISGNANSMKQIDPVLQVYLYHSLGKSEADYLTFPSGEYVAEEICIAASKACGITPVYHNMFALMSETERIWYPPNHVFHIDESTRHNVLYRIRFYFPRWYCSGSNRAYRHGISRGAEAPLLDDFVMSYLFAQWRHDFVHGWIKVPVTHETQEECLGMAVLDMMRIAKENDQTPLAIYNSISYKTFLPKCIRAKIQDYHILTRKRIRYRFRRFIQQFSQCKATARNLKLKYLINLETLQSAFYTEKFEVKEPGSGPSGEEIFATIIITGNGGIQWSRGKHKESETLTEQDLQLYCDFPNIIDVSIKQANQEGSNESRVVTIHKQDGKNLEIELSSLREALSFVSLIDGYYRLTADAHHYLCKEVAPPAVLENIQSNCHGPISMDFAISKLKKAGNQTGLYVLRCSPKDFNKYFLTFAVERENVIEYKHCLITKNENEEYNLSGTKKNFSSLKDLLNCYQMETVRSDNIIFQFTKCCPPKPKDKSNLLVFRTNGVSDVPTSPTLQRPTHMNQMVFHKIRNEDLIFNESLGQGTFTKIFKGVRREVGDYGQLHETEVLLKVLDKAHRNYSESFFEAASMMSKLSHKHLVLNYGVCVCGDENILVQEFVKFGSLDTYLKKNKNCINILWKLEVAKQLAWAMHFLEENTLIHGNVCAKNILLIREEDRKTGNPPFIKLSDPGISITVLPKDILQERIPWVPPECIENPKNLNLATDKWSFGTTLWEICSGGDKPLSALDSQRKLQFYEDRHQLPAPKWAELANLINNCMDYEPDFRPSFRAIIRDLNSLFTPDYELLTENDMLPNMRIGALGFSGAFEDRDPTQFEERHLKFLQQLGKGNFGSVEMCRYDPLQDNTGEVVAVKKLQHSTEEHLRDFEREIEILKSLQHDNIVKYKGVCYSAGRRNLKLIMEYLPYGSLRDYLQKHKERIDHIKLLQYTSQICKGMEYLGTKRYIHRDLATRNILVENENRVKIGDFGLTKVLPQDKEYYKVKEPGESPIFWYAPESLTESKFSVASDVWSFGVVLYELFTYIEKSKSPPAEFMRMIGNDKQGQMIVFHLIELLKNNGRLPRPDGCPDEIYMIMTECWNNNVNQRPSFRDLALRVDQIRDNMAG

MERTK = MERTK (UniProt Q12866); experiment: as above
c-Abl (mouse) = experiment: as above
c-Src = experiment: as above
Grb2 SH2 = Grb2 SH2 (UniProt P62993); experiment: SH2 binding enrichment of the phosphorylated peptide, bacterial display (enrichment ratio); higher = better substrate or ligand; peptides without Tyr show the background
SHP2-C SH2 = experiment: as above
c-Src SH2 = experiment: as above
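Throughout, for SH2 binding enrichment of the phosphorylated peptide, bacterial display: peptide library displayed on the E. coli surface as eCPX fusions, selected cells deep-sequenced, score is each peptide's frequency after selection divided by its frequency in the input.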
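Throughout, for phosphorylation enrichment, bacterial display: 11-residue human phosphosite peptides and single-mutation variants displayed on the E. coli surface, counted by deep sequencing, each peptide's frequency after selection divided by its frequency in the unselected input library; frequency after pTyr selection over input frequency; kinase dosed for 20-30% of maximal phosphorylation in three min.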

Chain of EPHB1 (P54762 whole entry, looked up): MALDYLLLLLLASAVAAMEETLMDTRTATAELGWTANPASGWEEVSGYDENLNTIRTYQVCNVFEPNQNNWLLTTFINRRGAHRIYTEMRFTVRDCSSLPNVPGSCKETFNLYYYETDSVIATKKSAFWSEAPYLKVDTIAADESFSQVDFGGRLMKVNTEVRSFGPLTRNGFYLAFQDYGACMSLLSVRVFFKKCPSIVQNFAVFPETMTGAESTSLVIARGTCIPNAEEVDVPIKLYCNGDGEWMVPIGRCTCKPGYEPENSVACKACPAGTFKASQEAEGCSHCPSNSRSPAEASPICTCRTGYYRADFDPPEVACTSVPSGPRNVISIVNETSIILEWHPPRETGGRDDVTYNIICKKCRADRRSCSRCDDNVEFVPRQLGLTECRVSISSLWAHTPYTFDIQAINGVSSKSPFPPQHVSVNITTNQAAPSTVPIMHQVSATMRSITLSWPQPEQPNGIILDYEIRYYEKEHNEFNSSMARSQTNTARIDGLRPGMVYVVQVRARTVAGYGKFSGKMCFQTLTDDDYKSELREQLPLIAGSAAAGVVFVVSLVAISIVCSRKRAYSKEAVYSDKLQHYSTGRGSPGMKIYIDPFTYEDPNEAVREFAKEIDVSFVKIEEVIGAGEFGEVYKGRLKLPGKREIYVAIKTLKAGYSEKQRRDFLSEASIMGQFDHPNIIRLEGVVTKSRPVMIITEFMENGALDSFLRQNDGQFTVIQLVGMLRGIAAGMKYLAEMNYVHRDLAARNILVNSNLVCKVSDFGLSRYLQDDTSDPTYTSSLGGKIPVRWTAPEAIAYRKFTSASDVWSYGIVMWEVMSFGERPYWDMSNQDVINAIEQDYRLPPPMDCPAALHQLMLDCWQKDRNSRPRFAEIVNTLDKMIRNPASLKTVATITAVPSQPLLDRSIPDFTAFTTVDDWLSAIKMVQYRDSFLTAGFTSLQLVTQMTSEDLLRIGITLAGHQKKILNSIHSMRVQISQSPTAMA

Sequence	SH2 binding enrichment (Grb2 SH2)	SH2 binding enrichment (SHP2-C SH2)	SH2 binding enrichment (c-Src SH2)	phosphorylation enrichment (AncSZ)	phosphorylation enrichment (EPHB1)	phosphorylation enrichment (EPHB2)	phosphorylation enrichment (FGFR1)	phosphorylation enrichment (FGFR3)	phosphorylation enrichment (Fer (mouse))	phosphorylation enrichment (Fes)	phosphorylation enrichment (Fyn)	phosphorylation enrichment (Hck)	phosphorylation enrichment (Jak2)	phosphorylation enrichment (MERTK)	phosphorylation enrichment (c-Abl (mouse))	phosphorylation enrichment (c-Src)
RYVVLYDAELT [ERCC4_Y581]	1.47	7.24	6.75	1.3	2.77	1.96	0.736	1.04	0.629	1.49	0.657	0.66	1.24	1.98	0.817	0.605
MVSLFYGTALF [OR10C1_Y251]	0.865	0.778	0.431	1.32	0.757	0.708	0.51	0.906	1.18	1.32	2.21	1.45	1.2	0.707	1.21	2.44
PYSNPYENSLI [EPOR_Y489]	3.58	0.818	5.44	1.17	0.781	0.714	0.806	1.14	2.63	1.16	0.906	0.679	1.05	0.912	0.762	1.15
MSYDRYMAVCH [OR2A5_Y123_I126V]	0.779	0.687	0.993	0.867	0.879	0.751	0.438	0.57	0.595	0.878	0.475	0.507	0.891	0.44	0.509	0.464
DGQFVYKLTDF [TBK1_Y153_S151F]	0.859	0.773	0.481	1.06	0.467	0.587	0.498	0.649	0.739	1.01	2.44	0.832	0.799	0.366	0.482	2.32
KQCSDYARELE [MYH3_Y1140_R1137C]	1.02	0.704	0.619	1.23	0.597	0.605	0.654	0.769	0.578	1.26	0.552	0.571	1.19	0.557	0.929	0.514
FSNKLHFQLEQ [PDPR_Y109_Y109H_YF]	0.917	0.938	0.482	0.976	0.473	0.509	0.482	0.509	0.43	1.18	0.471	0.398	0.889	0.51	0.709	0.491
LLQKTYNFNVL [SLC4A1_Y553_P548L_YF]	1.09	0.916	0.593	1.41	0.909	0.984	0.889	1.24	1.05	1.2	0.749	0.88	0.81	0.997	0.77	0.594

Further lines, with some results ahead:

SH2 binding enrichment (Grb2 SH2)	SH2 binding enrichment (SHP2-C SH2)	SH2 binding enrichment (c-Src SH2)	Sequence	phosphorylation enrichment (AncSZ)	phosphorylation enrichment (EPHB1)	phosphorylation enrichment (EPHB2)	phosphorylation enrichment (FGFR1)	phosphorylation enrichment (FGFR3)	phosphorylation enrichment (Fer (mouse))	phosphorylation enrichment (Fes)	phosphorylation enrichment (Fyn)	phosphorylation enrichment (Hck)	phosphorylation enrichment (Jak2)	phosphorylation enrichment (MERTK)	phosphorylation enrichment (c-Abl (mouse))	phosphorylation enrichment (c-Src)
0.821	0.615	0.515	EQMASYSGHSV [ITGA2B_Y319_F320S]	0.496	0.298	0.363	0.384	0.406	0.734	0.543	0.449	0.488	0.736	0.337	0.493	0.37
0.752	0.654	0.363	SVTCKYSPALN [TP53_Y126_T125K]	0.638	0.431	0.457	0.429	0.515	0.392	0.795	0.344	0.431	0.629	0.386	0.458	0.454
1.52	1.43	1.03	FMMMRYSQNVR [SDAD1_Y656]	1.11	0.614	0.626	0.432	0.782	0.58	1.04	0.424	0.475	0.939	0.493	0.701	0.365
1.65	3.28	3.88	CTTIHYNYMCY [TP53_Y234_N239Y]	0.946	5.43	3.42	3.76	1.95	1.25	1	1.15	0.647	0.957	0.804	0.78	2.17
0.73	0.481	0.483	QKKEEYKMALF [F8_Y1990_R1985Q_YF]	0.736	0.645	0.48	0.716	0.509	0.498	0.866	0.421	0.561	0.552	0.811	0.774	0.37
0.871	0.529	0.388	KILAKYSLETS [NAMPT_Y175_L176S]	0.537	0.335	0.409	0.442	0.456	0.377	0.58	0.354	0.437	0.503	0.256	0.476	0.301
1.12	1.42	1.43	GGMAKYTRLHN [EHHADH_Y4_E3K]	0.492	0.351	0.458	0.39	0.398	0.343	0.542	0.318	0.343	0.641	0.407	0.491	0.334
0.697	0.486	0.479	KITVIYDGACQ [VWDE_Y1035]	1.1	0.599	0.664	0.438	0.778	0.574	1.28	0.51	0.711	1.14	0.437	0.837	0.721
0.818	0.676	1.46	GYSRHYEDGYP [CTNND1_Y217]	0.691	0.383	0.465	0.391	0.529	0.374	0.722	0.382	0.383	0.623	0.524	0.67	0.488
